According to US20230002493A1 (ORIONIS BIOSCIENCES, published 2023):

Columns and labels:
[1] = target: T1, recombinant PD-L1 extracellular domain fused to the mouse IgG1 Fc domain (SinoBiologicals) (human; mouse, UniProt Q9NZQ7 19-238); test: BLI (Octet Red 96), PD-L1-mouse IgG1 Fc on AMQ biosensors, VHH dilution series
T1 construct: extracellular domain; also called human PD-L1-mouse Fc; PD-L1-mouse Fc protein; not shown: mouse IgG1 Fc domain
Description: (§1) Affinities of resulting variants were measured using the bio-layer interferometry technology on an Octet Red 96 instrument (ForteBio). In brief, recombinant PD-L1 extracellular domain fused to the mouse IgG1 Fc domain (SinoBiologicals) was immobilized on anti-murine IgG quantitation (AMQ) biosensors (ForteBio). Loaded sensors were incubated with a serial dilution of PD-L1 VHH variant, association and dissociation monitored and kinetic parameters were calculated using the Octet Data Analysis software v10 (ForteBio).
(§2) The aspartic acid at position 1 was included to avoid the risk of pyroglutamate formation. […] Resulting mutants were purified and affinities measured as described in Example 1.

[2] = target: T1, recombinant PD-L1 extracellular domain …; test: BLI (Octet Red 96); ratio of the printed KDs, variant over 2LIG189
Description: as §1, §2

T1 sequence (Q9NZQ7 19-238): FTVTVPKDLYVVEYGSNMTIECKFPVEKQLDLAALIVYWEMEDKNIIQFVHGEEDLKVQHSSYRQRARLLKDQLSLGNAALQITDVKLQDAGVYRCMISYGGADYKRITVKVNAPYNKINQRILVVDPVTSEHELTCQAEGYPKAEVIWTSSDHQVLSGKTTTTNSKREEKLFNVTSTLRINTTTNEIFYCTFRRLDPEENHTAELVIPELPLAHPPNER

| Binder | Kd [1] [nM] | koff [1] [s⁻¹] | kon [1] [M⁻¹ s⁻¹] | Ratio KD [2] | binding result [1] |
| --- | --- | --- | --- | --- | --- |
| 2LIG189_D33E (VHH) VHH: QVQLQESGGGLVQAGGSLRLSCAASGKIFSGNEMGWYRQAPGKQRELVGIITSGGITDYADAVKGRFTISRDNAKNMMYLQMNSLKPEDTAVYYCNMRDRTIWWGQGTQVTVSS | 41.2 | 0.00883 | 214000 | 52.1 |  |
| 2LIG189_D33L (VHH) VHH: QVQLQESGGGLVQAGGSLRLSCAASGKIFSGNLMGWYRQAPGKQRELVGIITSGGITDYADAVKGRFTISRDNAKNMMYLQMNSLKPEDTAVYYCNMRDRTIWWGQGTQVTVSS | 16.4 | 0.0342 | 2.08e+06 | 20.7 |  |
| 2LIG189_M97H (VHH) VHH: QVQLQESGGGLVQAGGSLRLSCAASGKIFSGNDMGWYRQAPGKQRELVGIITSGGITDYADAVKGRFTISRDNAKNMMYLQMNSLKPEDTAVYYCNHRDRTIWWGQGTQVTVSS |  |  |  |  | no binding |
| 2LIG189_M97E (VHH) VHH: QVQLQESGGGLVQAGGSLRLSCAASGKIFSGNDMGWYRQAPGKQRELVGIITSGGITDYADAVKGRFTISRDNAKNMMYLQMNSLKPEDTAVYYCNERDRTIWWGQGTQVTVSS |  |  |  |  | no binding |
| 2LIG189_D33V (VHH) VHH: QVQLQESGGGLVQAGGSLRLSCAASGKIFSGNVMGWYRQAPGKQRELVGIITSGGITDYADAVKGRFTISRDNAKNMMYLQMNSLKPEDTAVYYCNMRDRTIWWGQGTQVTVSS |  |  |  |  | no binding |
| 2LIG189_D33I (VHH) VHH: QVQLQESGGGLVQAGGSLRLSCAASGKIFSGNIMGWYRQAPGKQRELVGIITSGGITDYADAVKGRFTISRDNAKNMMYLQMNSLKPEDTAVYYCNMRDRTIWWGQGTQVTVSS |  |  |  |  | no binding |
| 2LIG189_D33F (VHH) VHH: QVQLQESGGGLVQAGGSLRLSCAASGKIFSGNFMGWYRQAPGKQRELVGIITSGGITDYADAVKGRFTISRDNAKNMMYLQMNSLKPEDTAVYYCNMRDRTIWWGQGTQVTVSS | 9.78 | 0.0107 | 1.09e+06 | 12.4 |  |
| 2LIG189_N32G (VHH) VHH: QVQLQESGGGLVQAGGSLRLSCAASGKIFSGGDMGWYRQAPGKQRELVGIITSGGITDYADAVKGRFTISRDNAKNMMYLQMNSLKPEDTAVYYCNMRDRTIWWGQGTQVTVSS | 19 | 0.00228 | 120000 | 24 |  |
| 2LIG189_M97R (VHH) VHH: QVQLQESGGGLVQAGGSLRLSCAASGKIFSGNDMGWYRQAPGKQRELVGIITSGGITDYADAVKGRFTISRDNAKNMMYLQMNSLKPEDTAVYYCNRRDRTIWWGQGTQVTVSS |  |  |  |  | no binding |
| 2LIG189_D33R (VHH) VHH: QVQLQESGGGLVQAGGSLRLSCAASGKIFSGNRMGWYRQAPGKQRELVGIITSGGITDYADAVKGRFTISRDNAKNMMYLQMNSLKPEDTAVYYCNMRDRTIWWGQGTQVTVSS |  |  |  |  | no binding |
| 2LIG189_D33Q (VHH) VHH: QVQLQESGGGLVQAGGSLRLSCAASGKIFSGNQMGWYRQAPGKQRELVGIITSGGITDYADAVKGRFTISRDNAKNMMYLQMNSLKPEDTAVYYCNMRDRTIWWGQGTQVTVSS | 25 | 0.0118 | 474000 | 31.6 |  |
| 2LIG189_OPT1 (VHH) VHH: DVQLVESGGGLVQPGGSLRLSCAASGKIFSGNDMGWYRQAPGKQRELVGIITSGGITDYADAVKGRFTISRDNSKNMMYLQMNSLRPEDTAVYYCNMRDRTIWWGQGTLVTVSS | 6.92 | 0.000497 | 71800 | 8.75 |  |
| 2LIG189_M97Q (VHH) VHH: QVQLQESGGGLVQAGGSLRLSCAASGKIFSGNDMGWYRQAPGKQRELVGIITSGGITDYADAVKGRFTISRDNAKNMMYLQMNSLKPEDTAVYYCNQRDRTIWWGQGTQVTVSS |  |  |  |  | no binding |

Continued, values first:

| Kd [1] [nM] | koff [1] [s⁻¹] | kon [1] [M⁻¹ s⁻¹] | Ratio KD [2] | binding result [1] | Binder |
| --- | --- | --- | --- | --- | --- |
| 3.02 | 0.0009 | 298000 | 3.82 |  | 2LIG189_N32V (VHH) VHH: QVQLQESGGGLVQAGGSLRLSCAASGKIFSGVDMGWYRQAPGKQRELVGIITSGGITDYADAVKGRFTISRDNAKNMMYLQMNSLKPEDTAVYYCNMRDRTIWWGQGTQVTVSS |
| 6.51 | 0.000872 | 134000 | 8.23 |  | 2LIG189_N32I (VHH) VHH: QVQLQESGGGLVQAGGSLRLSCAASGKIFSGIDMGWYRQAPGKQRELVGIITSGGITDYADAVKGRFTISRDNAKNMMYLQMNSLKPEDTAVYYCNMRDRTIWWGQGTQVTVSS |
| 1.28 | 0.000299 | 234000 | 1.62 |  | 2LIG189_OPT2 (VHH) VHH: DVQLVESGGGLVQPGGSLRLSCAASGKIFSGNDMGWYRQAPGKQRELVGIITSGGITDYADAVKGRFTISRDNSKNTMYLQMNSLRPEDTAVYYCNMRDRTIWWGQGTLVTVSS |
| 1.51 | 0.000208 | 138000 | 1.9 |  | 2LIG189_M97F (VHH) VHH: QVQLQESGGGLVQAGGSLRLSCAASGKIFSGNDMGWYRQAPGKQRELVGIITSGGITDYADAVKGRFTISRDNAKNMMYLQMNSLKPEDTAVYYCNFRDRTIWWGQGTQVTVSS |
| 1.62 | 0.000195 | 121000 | 2.04 |  | 2LIG189_N32L (VHH) VHH: QVQLQESGGGLVQAGGSLRLSCAASGKIFSGLDMGWYRQAPGKQRELVGIITSGGITDYADAVKGRFTISRDNAKNMMYLQMNSLKPEDTAVYYCNMRDRTIWWGQGTQVTVSS |
| 2.23 | 0.00835 | 3.75e+06 | 2.82 |  | 2LIG189_D33Y (VHH) VHH: QVQLQESGGGLVQAGGSLRLSCAASGKIFSGNYMGWYRQAPGKQRELVGIITSGGITDYADAVKGRFTISRDNAKNMMYLQMNSLKPEDTAVYYCNMRDRTIWWGQGTQVTVSS |
| 6.31 | 0.00104 | 164000 | 7.97 |  | 2LIG189_N32T (VHH) VHH: QVQLQESGGGLVQAGGSLRLSCAASGKIFSGTDMGWYRQAPGKQRELVGIITSGGITDYADAVKGRFTISRDNAKNMMYLQMNSLKPEDTAVYYCNMRDRTIWWGQGTQVTVSS |
| 1.8 | 0.000292 | 163000 | 2.27 |  | 2LIG189_N32S (VHH) VHH: QVQLQESGGGLVQAGGSLRLSCAASGKIFSGSDMGWYRQAPGKQRELVGIITSGGITDYADAVKGRFTISRDNAKNMMYLQMNSLKPEDTAVYYCNMRDRTIWWGQGTQVTVSS |
| 2.04 | 0.000629 | 308000 | 2.58 |  | 2LIG189_N32Y (VHH) VHH: QVQLQESGGGLVQAGGSLRLSCAASGKIFSGYDMGWYRQAPGKQRELVGIITSGGITDYADAVKGRFTISRDNAKNMMYLQMNSLKPEDTAVYYCNMRDRTIWWGQGTQVTVSS |
| 0.55 | 0.000176 | 320000 | 0.7 |  | 2LIG189_N32F (VHH) VHH: QVQLQESGGGLVQAGGSLRLSCAASGKIFSGFDMGWYRQAPGKQRELVGIITSGGITDYADAVKGRFTISRDNAKNMMYLQMNSLKPEDTAVYYCNMRDRTIWWGQGTQVTVSS |
| 0.542 | 9.85e-05 | 182000 | 0.68 |  | 2LIG189_N32E (VHH) VHH: QVQLQESGGGLVQAGGSLRLSCAASGKIFSGEDMGWYRQAPGKQRELVGIITSGGITDYADAVKGRFTISRDNAKNMMYLQMNSLKPEDTAVYYCNMRDRTIWWGQGTQVTVSS |
| 2.7 | 0.000733 | 272000 | 3.41 |  | 2LIG189_N32A (VHH) VHH: QVQLQESGGGLVQAGGSLRLSCAASGKIFSGADMGWYRQAPGKQRELVGIITSGGITDYADAVKGRFTISRDNAKNMMYLQMNSLKPEDTAVYYCNMRDRTIWWGQGTQVTVSS |
| 4.82 | 0.00146 | 303000 | 6.09 |  | 2LIG189_M97Y (VHH) VHH: QVQLQESGGGLVQAGGSLRLSCAASGKIFSGNDMGWYRQAPGKQRELVGIITSGGITDYADAVKGRFTISRDNAKNMMYLQMNSLKPEDTAVYYCNYRDRTIWWGQGTQVTVSS |
| 1.81 | 0.000446 | 247000 | 2.28 |  | 2LIG189_N32H (VHH) VHH: QVQLQESGGGLVQAGGSLRLSCAASGKIFSGHDMGWYRQAPGKQRELVGIITSGGITDYADAVKGRFTISRDNAKNMMYLQMNSLKPEDTAVYYCNMRDRTIWWGQGTQVTVSS |
